Assay results published in article doi:10.1101/2020.05.03.074682.

Target: biotinylated C-terminal cytosolic tail of GCS
Experiment: ITC

Kd: 2000 nM
Substance: GRASP domain of GRASP55 (recombinant, used for ITC) (domain or fragment)
